Data taken from patent publication US20210115151A1 (TOHOKU UNIVERSITY, published 2021).
Changes are numbered by the printed parent chain. Each block holds one binder with its values, some of them ahead of it.

Tests used:
[1] = molecular target: T1, human podoplanin on cancer cells (glioblastoma LN319, lung cancer PC-10) (human, UniProt Q86YL7 23-162, sialylated O-glycan on Thr85 (as the filing concludes for podoplanin on cancer cells)); assay: flow cytometry, ExpiCHO culture supernatant on LN319 cells
T1 construct: Endogenous podoplanin on cancer cell lines LN319 and PC-10; also called hPDPN; cancer-type podoplanin
T1 chain: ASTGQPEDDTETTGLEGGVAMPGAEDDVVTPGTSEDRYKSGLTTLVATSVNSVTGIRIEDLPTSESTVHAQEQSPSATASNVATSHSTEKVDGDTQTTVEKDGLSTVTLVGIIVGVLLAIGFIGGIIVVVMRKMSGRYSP
Protocol: Plasmids of the H chain and the L chain of chPMab117-mG2a were introduced into ExpiCHO cell lines (product of Thermo Fisher) by lipofection and a recombinant antibody of chPMab117-mG2a was expressed in the culture supernatant. The culture supernatant was collected two days after gene introduction. It was reacted with LN 319 cells at 4° C. for 30 minutes and was then reacted further with an anti-mouse IgG-FITC antibody (product of Thermo Fisher) at 4° C. for 30 minutes. As a negative control, only a secondary antibody was used.

human podoplanin I78A = molecular target: T2, human podoplanin I78A (human, UniProt Q86YL7 23-162); assay: flow cytometry, alanine scan 77-89
T2 construct: Alanine point mutant tested by flow cytometry
T2 chain: T1 chain with I56A

human podoplanin T85A = molecular target: T3, human podoplanin T85A (human, UniProt Q86YL7 23-162); assay: flow cytometry, alanine scan 77-89
T3 chain: T1 chain with T63A

human podoplanin E81A = molecular target: T4, human podoplanin E81A (human, UniProt Q86YL7 23-162); assay: flow cytometry, alanine scan 77-89
T4 construct: Alanine point mutant tested by flow cytometry
T4 chain: T1 chain with E59A

human podoplanin I80A = molecular target: T5, human podoplanin I80A (human, UniProt Q86YL7 23-162); assay: flow cytometry, alanine scan 77-89
T5 construct: Alanine point mutant tested by flow cytometry
T5 chain: T1 chain with I58A

human podoplanin D82A = molecular target: T6, human podoplanin D82A (human, UniProt Q86YL7 23-162); assay: flow cytometry, alanine scan 77-89
T6 construct: Alanine point mutant tested by flow cytometry
T6 chain: T1 chain with D60A

- binding result [1]: binds
B1: mouse chimeric PMab-117 (chPMab117-mG2a) (antibody, mouse IgG2a, kappa)
heavy: AVQLVESGGGLVQPKESLKISCAASGFTFSNAAMYWVRQAPGKGLEWVARIRSKPNNYATYYTDSVKGRFTISRDDSKSMVHLQMDNLKTEDTAMYYCTVGGNNYAAAYWGQGTLVTVSSAKTTAPSVYPLAPVCGDTTGSSVTLGCLVKGYFPEPVTLTWNSGSLSSGVHTFPAVLQSDLYTLSSSVTVTSSTWPSQSITCNVAHPASSTKVDKKIEPRGPTIKPCPPCKCPAPNLLGGPSVFIFPPKIKDVLMISLSPIVTCVVVDVSEDDPDVQISWFVNNVEVHTAQTQTHREDYNSTLRVVSALPIQHQDWMSGKEFKCKVNNKDLPAPIERTISKPKGSVRAPQVYVLPPPEEEMTKKQVTLTCMVTDFMPEDIYVEWTNNGKTELNYKNTEPVLDSDGSYFMYSKLRVEKKNWVERNSYSCSVVHEGLHNHHTTKSFSRTPGK
light: DVVLTQTPVAQPVTLGDQASISCRSSQSLVHSNGNTYLEWYLQKPGQSPQLLIYKVSNRFSGVPDRFIGSGSGSDFTLKISRVEPEDLGVYYCFQVTHDPFTFGSGTKLEIKRADAAPTVSIFPPSTEQLATGGASVVCLMNNFYPRDISVKWKIDGTERRDGVLDSVTDQDSKDSTYSMSSTLSLTKADYESHNLYTCEVVHKTSSSPVVKSFNRNEC
notes: tested as ExpiCHO culture supernatant; no limits stated

- binding result (human podoplanin I78A): no binding (tested: 10 µg/mL)
- binding result (human podoplanin T85A): no binding (tested: 10 µg/mL)
- binding result (human podoplanin E81A): no binding (tested: 10 µg/mL)
- binding result (human podoplanin I80A): no binding (tested: 10 µg/mL)
- binding result (human podoplanin D82A): no binding (tested: 10 µg/mL)
B2: human chimeric PMab-117 (chPMab-117) (antibody, human IgG1)
heavy: not shown
light: DVVLTQTPVAQPVTLGDQASISCRSSQSLVHSNGNTYLEWYLQKPGQSPQLLIYKVSNRFSGVPDRFIGSGSGSDFTLKISRVEPEDLGVYYCFQVTHDPFTFGSGTKLEIKRGSAAPSVFIFPPSDEQLKSGTASVVCLLNNFYPREAKVQWKVDNALQSGNSQESVTEQDSKDSTYSLSSTLTLSKADYEKHKVYACEVTHQGLSSPVTKSFNRGEC
